Assay in all cases: negative stain EM (single-particle analysis, 3D reconstruction); purified complexes at 40-50 ug/ml, incubated with ATPγS (2.5 mM), ATP (5 mM), ADP (5 mM) or ADP-AlFx, adsorbed on carbon grids, stained with 2% uranyl acetate; threefold symmetry imposed
Settings in all cases: both partners purified

Assay [1] concerns the target T1, Pex1 (wild type, from HisPex1GST after thrombin cleavage) (yeast, UniProt P24004 1-1043).
T1 construct: Pex1, yeast, type II AAA+ ATPase; PEX1 amplified from genomic DNA; 1,043 amino acids (from the range printed for Δ188PEX1); also called Pex1 of Pex1/6; source: E. coli Tuner (DE3), purified together with HisPex6 (Ni-NTA agarose, glutathione agarose, eluted by thrombin cleavage); not shown: GST, C-terminal, cleaved
T1 sequence (looked up): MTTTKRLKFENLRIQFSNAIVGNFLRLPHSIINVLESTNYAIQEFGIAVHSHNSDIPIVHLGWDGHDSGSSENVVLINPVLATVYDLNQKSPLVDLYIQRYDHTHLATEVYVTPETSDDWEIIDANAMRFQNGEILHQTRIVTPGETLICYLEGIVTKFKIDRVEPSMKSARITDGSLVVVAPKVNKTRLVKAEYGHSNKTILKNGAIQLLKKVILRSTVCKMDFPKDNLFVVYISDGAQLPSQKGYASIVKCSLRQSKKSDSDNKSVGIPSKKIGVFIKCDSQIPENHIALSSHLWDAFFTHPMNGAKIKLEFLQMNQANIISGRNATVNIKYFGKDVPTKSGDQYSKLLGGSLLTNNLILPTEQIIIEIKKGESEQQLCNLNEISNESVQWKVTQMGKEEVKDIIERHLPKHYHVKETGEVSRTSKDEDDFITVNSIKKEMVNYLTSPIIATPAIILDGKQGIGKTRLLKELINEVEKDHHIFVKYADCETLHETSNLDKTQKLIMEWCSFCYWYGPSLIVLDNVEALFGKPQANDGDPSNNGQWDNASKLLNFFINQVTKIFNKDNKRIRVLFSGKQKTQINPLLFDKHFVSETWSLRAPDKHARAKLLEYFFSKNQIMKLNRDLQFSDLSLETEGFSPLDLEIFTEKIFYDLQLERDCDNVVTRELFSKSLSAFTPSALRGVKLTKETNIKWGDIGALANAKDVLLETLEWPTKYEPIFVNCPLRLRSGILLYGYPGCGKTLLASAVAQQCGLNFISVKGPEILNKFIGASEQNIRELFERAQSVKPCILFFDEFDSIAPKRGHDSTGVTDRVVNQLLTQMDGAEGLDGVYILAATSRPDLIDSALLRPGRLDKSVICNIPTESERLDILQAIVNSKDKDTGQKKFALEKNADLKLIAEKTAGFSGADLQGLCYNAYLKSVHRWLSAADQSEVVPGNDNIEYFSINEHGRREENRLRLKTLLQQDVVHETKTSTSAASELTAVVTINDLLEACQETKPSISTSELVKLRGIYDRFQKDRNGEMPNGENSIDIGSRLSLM

For assay [2], the target named is T2, Pex1GST (Pex1 with the C-terminal GST kept) (yeast, UniProt P24004 1-1043).
T2 construct: Pex1, yeast; PEX1 cloned into pRSFDuet-cGST (GST with a thrombin cleavage site); also called HisPex1GST; source: E. coli Tuner (DE3), purified; not shown: GST, C-terminal, kept
T2 sequence (looked up): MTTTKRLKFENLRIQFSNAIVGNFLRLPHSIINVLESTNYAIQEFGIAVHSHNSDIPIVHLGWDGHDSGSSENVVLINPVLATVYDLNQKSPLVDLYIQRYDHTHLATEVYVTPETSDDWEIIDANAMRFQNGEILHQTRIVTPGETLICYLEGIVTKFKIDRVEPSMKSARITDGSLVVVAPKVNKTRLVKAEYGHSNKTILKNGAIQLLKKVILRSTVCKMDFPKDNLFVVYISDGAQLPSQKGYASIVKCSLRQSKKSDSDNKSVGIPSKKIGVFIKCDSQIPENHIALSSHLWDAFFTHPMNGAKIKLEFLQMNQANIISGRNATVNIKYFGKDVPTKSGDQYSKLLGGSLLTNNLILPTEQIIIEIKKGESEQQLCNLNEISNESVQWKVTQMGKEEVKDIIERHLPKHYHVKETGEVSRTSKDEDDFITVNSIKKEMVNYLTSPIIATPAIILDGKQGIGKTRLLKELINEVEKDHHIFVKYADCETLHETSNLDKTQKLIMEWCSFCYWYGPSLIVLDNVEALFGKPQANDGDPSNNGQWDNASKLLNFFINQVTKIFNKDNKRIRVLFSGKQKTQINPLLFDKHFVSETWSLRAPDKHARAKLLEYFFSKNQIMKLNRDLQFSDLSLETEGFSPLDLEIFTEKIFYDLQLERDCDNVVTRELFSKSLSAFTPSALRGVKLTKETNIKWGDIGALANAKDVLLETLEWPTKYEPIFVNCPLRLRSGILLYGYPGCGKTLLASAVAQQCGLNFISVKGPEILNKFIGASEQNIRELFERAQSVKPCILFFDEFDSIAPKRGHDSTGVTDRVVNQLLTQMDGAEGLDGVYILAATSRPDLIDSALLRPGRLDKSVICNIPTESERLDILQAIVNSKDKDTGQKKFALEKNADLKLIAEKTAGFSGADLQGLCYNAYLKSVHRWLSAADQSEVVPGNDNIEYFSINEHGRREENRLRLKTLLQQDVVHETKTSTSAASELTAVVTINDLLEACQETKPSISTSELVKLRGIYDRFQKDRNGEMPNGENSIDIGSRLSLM

The target of assay [3] is T3, Pex6 (wild type, overexpressed in yeast) (yeast, UniProt P33760 1-1030).
T3 construct: Pex6, yeast; full-length PEX6 amplified from genomic DNA, in pRS425GAL or pYES2; also called Pex6 of Δ188Pex1/Pex6 and of Pex1WB/6; source: S. cerevisiae, overexpressed (2% galactose), purified (IgG Sepharose, TEV cleavage, glycerol gradient); not shown: protein A (ProA), C-terminal, cleaved
T3 sequence (looked up): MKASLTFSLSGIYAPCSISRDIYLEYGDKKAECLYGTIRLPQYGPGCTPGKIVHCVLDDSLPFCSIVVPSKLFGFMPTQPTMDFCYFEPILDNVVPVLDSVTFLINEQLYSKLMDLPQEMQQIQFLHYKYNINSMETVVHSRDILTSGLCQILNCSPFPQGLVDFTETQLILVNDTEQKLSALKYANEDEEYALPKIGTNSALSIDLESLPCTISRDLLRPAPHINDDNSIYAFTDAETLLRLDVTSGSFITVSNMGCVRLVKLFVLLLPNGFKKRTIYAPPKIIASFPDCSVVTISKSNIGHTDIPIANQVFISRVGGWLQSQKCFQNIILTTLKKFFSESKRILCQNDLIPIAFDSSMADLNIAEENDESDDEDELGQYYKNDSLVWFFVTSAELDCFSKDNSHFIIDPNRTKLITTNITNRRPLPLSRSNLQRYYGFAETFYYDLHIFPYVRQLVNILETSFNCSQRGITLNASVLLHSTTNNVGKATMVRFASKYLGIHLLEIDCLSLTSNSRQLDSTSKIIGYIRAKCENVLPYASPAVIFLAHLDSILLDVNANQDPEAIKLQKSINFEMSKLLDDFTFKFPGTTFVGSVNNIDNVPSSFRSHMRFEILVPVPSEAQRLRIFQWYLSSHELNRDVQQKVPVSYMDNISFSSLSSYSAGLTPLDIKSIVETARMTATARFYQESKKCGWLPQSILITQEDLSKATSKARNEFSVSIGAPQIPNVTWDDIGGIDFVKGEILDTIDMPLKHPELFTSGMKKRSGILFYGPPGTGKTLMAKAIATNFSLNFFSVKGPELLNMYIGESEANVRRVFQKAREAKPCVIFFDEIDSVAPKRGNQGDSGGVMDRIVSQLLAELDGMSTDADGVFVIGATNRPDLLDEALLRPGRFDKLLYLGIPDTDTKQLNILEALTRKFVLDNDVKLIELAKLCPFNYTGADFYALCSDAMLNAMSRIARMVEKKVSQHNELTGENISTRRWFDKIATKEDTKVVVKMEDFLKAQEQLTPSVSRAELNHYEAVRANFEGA

B1: Pex6 (wild type, HisPex6) (natural protein, yeast, UniProt P33760 1-1030, looked up)
chain: MKASLTFSLSGIYAPCSISRDIYLEYGDKKAECLYGTIRLPQYGPGCTPGKIVHCVLDDSLPFCSIVVPSKLFGFMPTQPTMDFCYFEPILDNVVPVLDSVTFLINEQLYSKLMDLPQEMQQIQFLHYKYNINSMETVVHSRDILTSGLCQILNCSPFPQGLVDFTETQLILVNDTEQKLSALKYANEDEEYALPKIGTNSALSIDLESLPCTISRDLLRPAPHINDDNSIYAFTDAETLLRLDVTSGSFITVSNMGCVRLVKLFVLLLPNGFKKRTIYAPPKIIASFPDCSVVTISKSNIGHTDIPIANQVFISRVGGWLQSQKCFQNIILTTLKKFFSESKRILCQNDLIPIAFDSSMADLNIAEENDESDDEDELGQYYKNDSLVWFFVTSAELDCFSKDNSHFIIDPNRTKLITTNITNRRPLPLSRSNLQRYYGFAETFYYDLHIFPYVRQLVNILETSFNCSQRGITLNASVLLHSTTNNVGKATMVRFASKYLGIHLLEIDCLSLTSNSRQLDSTSKIIGYIRAKCENVLPYASPAVIFLAHLDSILLDVNANQDPEAIKLQKSINFEMSKLLDDFTFKFPGTTFVGSVNNIDNVPSSFRSHMRFEILVPVPSEAQRLRIFQWYLSSHELNRDVQQKVPVSYMDNISFSSLSSYSAGLTPLDIKSIVETARMTATARFYQESKKCGWLPQSILITQEDLSKATSKARNEFSVSIGAPQIPNVTWDDIGGIDFVKGEILDTIDMPLKHPELFTSGMKKRSGILFYGPPGTGKTLMAKAIATNFSLNFFSVKGPELLNMYIGESEANVRRVFQKAREAKPCVIFFDEIDSVAPKRGNQGDSGGVMDRIVSQLLAELDGMSTDADGVFVIGATNRPDLLDEALLRPGRFDKLLYLGIPDTDTKQLNILEALTRKFVLDNDVKLIELAKLCPFNYTGADFYALCSDAMLNAMSRIARMVEKKVSQHNELTGENISTRRWFDKIATKEDTKVVVKMEDFLKAQEQLTPSVSRAELNHYEAVRANFEGA
notes: Pex6, yeast, type II AAA+ ATPase; PEX6 amplified from genomic DNA; also called Pex6 of Pex1/6
With B1, the binding result in assay [1] and in assay [2] was “binds” each time.

B2: Δ188Pex1 (N-terminal truncation mutant of Pex1) (domain or fragment, yeast, UniProt P24004 189-1043, looked up)
chain: RLVKAEYGHSNKTILKNGAIQLLKKVILRSTVCKMDFPKDNLFVVYISDGAQLPSQKGYASIVKCSLRQSKKSDSDNKSVGIPSKKIGVFIKCDSQIPENHIALSSHLWDAFFTHPMNGAKIKLEFLQMNQANIISGRNATVNIKYFGKDVPTKSGDQYSKLLGGSLLTNNLILPTEQIIIEIKKGESEQQLCNLNEISNESVQWKVTQMGKEEVKDIIERHLPKHYHVKETGEVSRTSKDEDDFITVNSIKKEMVNYLTSPIIATPAIILDGKQGIGKTRLLKELINEVEKDHHIFVKYADCETLHETSNLDKTQKLIMEWCSFCYWYGPSLIVLDNVEALFGKPQANDGDPSNNGQWDNASKLLNFFINQVTKIFNKDNKRIRVLFSGKQKTQINPLLFDKHFVSETWSLRAPDKHARAKLLEYFFSKNQIMKLNRDLQFSDLSLETEGFSPLDLEIFTEKIFYDLQLERDCDNVVTRELFSKSLSAFTPSALRGVKLTKETNIKWGDIGALANAKDVLLETLEWPTKYEPIFVNCPLRLRSGILLYGYPGCGKTLLASAVAQQCGLNFISVKGPEILNKFIGASEQNIRELFERAQSVKPCILFFDEFDSIAPKRGHDSTGVTDRVVNQLLTQMDGAEGLDGVYILAATSRPDLIDSALLRPGRLDKSVICNIPTESERLDILQAIVNSKDKDTGQKKFALEKNADLKLIAEKTAGFSGADLQGLCYNAYLKSVHRWLSAADQSEVVPGNDNIEYFSINEHGRREENRLRLKTLLQQDVVHETKTSTSAASELTAVVTINDLLEACQETKPSISTSELVKLRGIYDRFQKDRNGEMPNGENSIDIGSRLSLM
notes: Pex1, yeast, gene segment corresponding to amino acids 189-1,043; source: S. cerevisiae, overexpressed (2% galactose), purified (IgG Sepharose, TEV cleavage, glycerol gradient); not shown: protein A (ProA), C-terminal, cleaved
As to B2, the binding result in assay [3] is reported as “binds”.

For the origin of these results see paper PMC4490564, “Molecular snapshots of the Pex1/6 AAA+ complex in action” (Nature Communications, 2015).
